Assay results published in article PMC5052687.

Molecular target: human CD36 ectodomain (residues 35-439), C-terminal 8xHis and biotinylated BAP tag (human) (UniProt P16671)
Assay: SPR; biotinylated CD36 (wild type or F153A) immobilised on a CAPture chip to ~700 RU; CIDRα domains as analytes, two-fold dilutions from 400 nM (Supplementary Figure 10: 400 nM only), 240 s injection, 300 s dissociation; 25 °C, 20 mM HEPES pH 7.5, 0.15 M NaCl, 0.005% Tween20; affinities from equilibrium binding, one site-binding model

Chain of human CD36 ectodomain (residues 35-439), C-terminal 8xHis and biotinylated BAP tag (human) (P16671 35-439): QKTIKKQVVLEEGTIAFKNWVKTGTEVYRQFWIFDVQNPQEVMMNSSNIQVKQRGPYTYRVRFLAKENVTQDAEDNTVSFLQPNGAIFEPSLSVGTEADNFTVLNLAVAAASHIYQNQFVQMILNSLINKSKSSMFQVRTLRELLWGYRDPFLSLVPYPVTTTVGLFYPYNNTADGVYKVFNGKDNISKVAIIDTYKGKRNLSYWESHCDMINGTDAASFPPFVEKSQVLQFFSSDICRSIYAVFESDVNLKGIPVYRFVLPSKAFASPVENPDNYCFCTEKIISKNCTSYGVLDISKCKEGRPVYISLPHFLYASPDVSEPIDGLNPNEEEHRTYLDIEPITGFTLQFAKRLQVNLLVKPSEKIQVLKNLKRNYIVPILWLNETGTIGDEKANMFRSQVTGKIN

**Q.** With “IT4var26 CIDRα3.3 domain (domain or fragment)” as the substance, how does the Kd read?
**A.** 9.6 nM
